Results reported in US20060241048A1.

B1: Recombinant human CD59 (lacking the GPI anchor), with an amino-terminal methionine and a carboxy-terminal cysteine (APT2439) (protein)
chain: MLQCYNCPNPTADCKTAVNCSSDFDACLITKAGLQVYNKCWKFEHCNFNDVTTRLRENELTYYCCKKDLCNFNEQLENC
B2: APT3073, conjugate of APT2439 and APT2258 via a disulphide (protein, human)
chain: B1 chain
peptide: GSSKSPSKKDDKKPGDC
modifications: N-terminal myristoyl (Myr-); C-terminal amide (-NH2); Cys (2-SPy before conjugation) disulphide-linked to CD59; carboxy-terminal Cys disulphide-linked to APT2258
B3: APT3280, conjugate of APT2439 and APT3146 via a disulphide (protein, human)
chain: B1 chain
peptide: KSSKSPSKKDDKKPGDC
modifications: bisMyr at the N-terminal Lys; Cys (thiopyridylated before conjugation) disulphide-linked to CD59; carboxy-terminal Cys disulphide-linked to APT3146

Columns and labels:
[1] = biological target: bovine serum albumin (BSA) (bovine) (UniProt P02769); assay: cell-based or functional assay
Chain of UniProt P02769 (P02769 25-607 limits assumed): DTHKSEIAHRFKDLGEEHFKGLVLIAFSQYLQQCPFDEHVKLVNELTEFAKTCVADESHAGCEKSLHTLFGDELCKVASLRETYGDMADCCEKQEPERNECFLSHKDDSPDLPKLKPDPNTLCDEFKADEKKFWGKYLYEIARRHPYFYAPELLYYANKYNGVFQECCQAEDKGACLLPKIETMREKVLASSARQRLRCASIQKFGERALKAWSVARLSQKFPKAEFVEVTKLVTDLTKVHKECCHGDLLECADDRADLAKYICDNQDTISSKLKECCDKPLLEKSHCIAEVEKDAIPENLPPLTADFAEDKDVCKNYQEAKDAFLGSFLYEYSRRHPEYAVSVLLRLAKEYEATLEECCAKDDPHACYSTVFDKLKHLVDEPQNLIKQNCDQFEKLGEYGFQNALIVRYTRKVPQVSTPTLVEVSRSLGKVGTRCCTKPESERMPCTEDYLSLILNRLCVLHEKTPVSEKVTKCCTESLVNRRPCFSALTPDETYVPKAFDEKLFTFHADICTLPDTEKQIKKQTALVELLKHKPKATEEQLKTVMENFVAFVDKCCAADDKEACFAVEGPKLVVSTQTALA

[2] = biological target: C5b-8 and C5b-9 complexes (human); assay: cell-based or functional assay

Row | Molecule | IH50 of inhibition of haemolysis, 4 mg/ml BSA [No BSA: 0.26 at the 13th table, row 8, column 3] [1] | IH50 of inhibition of haemolysis, 40 mg/ml BSA [No BSA: 0.26 at the 13th table, row 8, column 3] [1] | IH50 (nM) of inhibition of haemolysis, Presence of Albumin (40 mg/ml) [absence of albumin: 0.26 at the 11th table, row 9, column 3] [1] | IH50 (nM), reactive lysis of guinea pig erythrocytes, Absence of HSA [2] | IH50 (nM), reactive lysis of guinea pig erythrocytes, Presence of HSA (2.7 mg/ml) [2]
1 | APT070, [SCR1-3]-Cys-S-S-[MSWP-1] (from UniProt P17927 42-237) (other; unit assumed) | 1.3 nM | 10 nM |  |  | 
2 | APT070, [SCR1-3]-Cys-S-S-[MSWP-1] (from UniProt P17927 42-237) |  |  | 10 nM |  | 
3 | B1 |  |  |  | 600 nM | 400 nM
4 | B2 |  |  |  | 0.8 nM | 6 nM
5 | B3 |  |  |  | 0.1 nM | 0.08 nM
